Test results reported in patent US20040102388.

What was measured:
FVII-RKR = FVII-RKR (UniProt P08709)
FVII-PRPSRKRR = FVII-PRPSRKRR (UniProt P08709)
[1] = target: wild type FVII (human Factor VII) (UniProt P08709)
FVII-RKRRKR = FVII-RKRRKR (UniProt P08709)

Molecule: Factor Xa
- FXa activation: conversion of single-chain zymogen to two-chain material (reducing gel) (FVII-RKR): the single-chain zymogen protein in all but FVII-INS was nearly completely converted to two-chain material
- FXa activation: conversion of single-chain zymogen to two-chain material (reducing gel) (FVII-PRPSRKRR): the single-chain zymogen protein in all but FVII-INS was nearly completely converted to two-chain material
- FXa concentration giving complete cleavage of zymogen (FVII-PRPSRKRR): Addition of 1 µM FXa (i.e 50 fold higher than for the other FVIIa proteins) resulted in complete cleavage of zymogen FVII-INS
- FXa activation: conversion of single-chain zymogen to two-chain material (reducing gel) [1]: modified FVII, like wild type FVII, is autoactivated by (A) soluble Tissue factor (sTF) and (B) Factor Xa
- FXa activation: conversion of single-chain zymogen to two-chain material (reducing gel) (FVII-RKRRKR): the single-chain zymogen protein in all but FVII-INS was nearly completely converted to two-chain material

B1: FVII-RKR (protein)
chain: ANAFLEELRPGSLERECKEEQCSFEEAREIFKDAERTKLFWISYSDGDQCASSPCQNGGSCKDQLQSYICFCLPAFEGRNCETHKDDQLICVNENGGCEQYCSDHTGTKRSCRCHEGYSLLADGVSCTPTVEYPCGKIPILEKRNASKPQGRRKRIVGGKVCPKGECPWQVLLLVNGAQLCGGTLINTIWVVSAAHCFDKIKNWRNLIAVLGEHDLSEHDGDEQSRRVAQVIIPSTYVPGTTNHDIALLRLHQPVVLTDHVVPLCLPERTFSERTLAFVRFSLVSGWGQLLDRGATALELMVLNVPRLMTQDCLQQSRKVGDSPNITEYMFCAGYSDGSKDSCKGDSGGPHATHYRGTWYLTGIVSWGQGCATVGHFGVYTRVSQYIEWLQKLMRSEPRPGVLLRAPFP
- autoactivation: cleavage of single-chain zymogen to two-chain FVIIa (reducing gel) (soluble Tissue factor): all modified FVIIa contain single-chain material that can be cleaved

B2: FVII-RKRRKR (protein)
chain: ANAFLEELRPGSLERECKEEQCSFEEAREIFKDAERTKLFWISYSDGDQCASSPCQNGGSCKDQLQSYICFCLPAFEGRNCETHKDDQLICVNENGGCEQYCSDHTGTKRSCRCHEGYSLLADGVSCTPTVEYPCGKIPILEKRNASKPQGRRKRRKRRKRIVGGKVCPKGECPWQVLLLVNGAQLCGGTLINTIWVVSAAHCFDKIKNWRNLIAVLGEHDLSEHDGDEQSRRVAQVIIPSTYVPGTTNHDIALLRLHQPVVLTDHVVPLCLPERTFSERTLAFVRFSLVSGWGQLLDRGATALELMVLNVPRLMTQDCLQQSRKVGDSPNITEYMFCAGYSDGSKDSCKGDSGGPHATHYRGTWYLTGIVSWGQGCATVGHFGVYTRVSQYIEWLQKLMRSEPRPGVLLRAPFP
- autoactivation: cleavage of single-chain zymogen to two-chain FVIIa (reducing gel) (soluble Tissue factor): all modified FVIIa contain single-chain material that can be cleaved

B3: wild type FVII (human Factor VII) (protein)
chain: ANAFLEELRPGSLERECKEEQCSFEEAREIFKDAERTKLFWISYSDGDQCASSPCQNGGSCKDQLQSYICFCLPAFEGRNCETHKDDQLICVNENGGCEQYCSDHTGTKRSCRCHEGYSLLADGVSCTPTVEYPCGKIPILEKRNASKPQGRIVGGKVCPKGECPWQVLLLVNGAQLCGGTLINTIWVVSAAHCFDKIKNWRNLIAVLGEHDLSEHDGDEQSRRVAQVIIPSTYVPGTTNHDIALLRLHQPVVLTDHVVPLCLPERTFSERTLAFVRFSLVSGWGQLLDRGATALELMVLNVPRLMTQDCLQQSRKVGDSPNITEYMFCAGYSDGSKDSCKGDSGGPHATHYRGTWYLTGIVSWGQGCATVGHFGVYTRVSQYIEWLQKLMRSEPRPGVLLRAPFP
- autoactivation: cleavage of single-chain zymogen to two-chain FVIIa (reducing gel) (soluble Tissue factor): single-chain protein (zymogen) in the FVII or the FVIIa preparations was cleaved to yield a two-chain material (FVIIa)

B4: FVII-PRPSRKRR (protein)
chain: ANAFLEELRPGSLERECKEEQCSFEEAREIFKDAERTKLFWISYSDGDQCASSPCQNGGSCKDQLQSYICFCLPAFEGRNCETHKDDQLICVNENGGCEQYCSDHTGTKRSCRCHEGYSLLADGVSCTPTVEYPCGKIPILEKRNASKPQGRPRPSRKRRIVGGKVCPKGECPWQVLLLVNGAQLCGGTLINTIWVVSAAHCFDKIKNWRNLIAVLGEHDLSEHDGDEQSRRVAQVIIPSTYVPGTTNHDIALLRLHQPVVLTDHVVPLCLPERTFSERTLAFVRFSLVSGWGQLLDRGATALELMVLNVPRLMTQDCLQQSRKVGDSPNITEYMFCAGYSDGSKDSCKGDSGGPHATHYRGTWYLTGIVSWGQGCATVGHFGVYTRVSQYIEWLQKLMRSEPRPGVLLRAPFP
- autoactivation: cleavage of single-chain zymogen to two-chain FVIIa (reducing gel) (soluble Tissue factor): all modified FVIIa contain single-chain material that can be cleaved
